Kd data for eleven substances are collected here from publication PMC8269367.

In one data set the target is T1, CTCF (Mus musculus) (UniProt Q61164).
T1 sequence: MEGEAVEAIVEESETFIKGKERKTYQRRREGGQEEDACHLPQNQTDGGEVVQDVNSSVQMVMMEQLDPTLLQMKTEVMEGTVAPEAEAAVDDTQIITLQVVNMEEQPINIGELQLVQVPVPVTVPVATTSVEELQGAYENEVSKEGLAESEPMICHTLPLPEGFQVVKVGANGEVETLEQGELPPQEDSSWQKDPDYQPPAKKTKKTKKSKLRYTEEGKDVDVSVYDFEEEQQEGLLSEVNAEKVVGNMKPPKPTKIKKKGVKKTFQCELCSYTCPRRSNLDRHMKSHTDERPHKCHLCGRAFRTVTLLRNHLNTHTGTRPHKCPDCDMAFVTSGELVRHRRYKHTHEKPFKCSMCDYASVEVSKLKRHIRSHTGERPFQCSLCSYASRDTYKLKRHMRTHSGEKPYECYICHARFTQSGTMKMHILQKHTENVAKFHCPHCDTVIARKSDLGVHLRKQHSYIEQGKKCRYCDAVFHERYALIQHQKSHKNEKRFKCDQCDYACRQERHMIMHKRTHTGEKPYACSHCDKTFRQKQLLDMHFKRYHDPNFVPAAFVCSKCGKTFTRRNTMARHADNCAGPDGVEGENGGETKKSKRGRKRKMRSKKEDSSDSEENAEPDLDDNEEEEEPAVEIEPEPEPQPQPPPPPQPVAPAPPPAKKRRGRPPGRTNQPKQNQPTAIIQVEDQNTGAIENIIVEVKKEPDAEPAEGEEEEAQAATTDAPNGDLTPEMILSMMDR
Briefly: MST. The settings on record: 50 nM labelled protein, 0.61 nM-20 uM oligo, 140 mM potassium phosphate pH 7.2 (6.7 for i-motif N1-3; CTCF oligo CD at pH 6.7), 10 mM NaCl in oligo ….
Take GGGGGGCGGGGGGCGGGGGGGGGGG [BDN-G4]: the Kd (as a rule, the equilibrium constant for the complex coming apart) is 120 nM.
The same measure, in the same setting: as for GGGGGTGGGGGGTGGGGGGAGGGGGG [SHA-G4], the figure is 70 nM; as for control CTCF duplex, 80 nM.

The target in another data set is HMGN3 (Homo sapiens) (UniProt Q15651). Kind of data set: MST. The note with it: 50 nM labelled protein, 0.61 nM-20 uM oligo, 140 mM potassium phosphate pH 7.2 (6.7 for i-motif N1-3; CTCF oligo CD at pH 6.7), 10 mM NaCl in oligo ….
Chain of HMGN3 (Homo sapiens) (Q15651 whole entry): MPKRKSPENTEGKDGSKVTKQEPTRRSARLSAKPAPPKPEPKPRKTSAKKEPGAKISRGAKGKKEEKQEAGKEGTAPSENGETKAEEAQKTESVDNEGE
AAAAAAAAAAAAAAAAAAAA [A20] showed a Kd of more than 20 µM.
Regarding “AAGGAAAAGAAAAAA (double strand) [N3-2/N3C-2]”, the Kd was more than 20 µM.
Still for that read-out and setting: as for “CAATCGGATCGAATTCGATCCGATTG [hair (ds26)]”, the figure is more than 20 µM; as for GGAGCAGGTGGGGAGCAGGCCGGAAGAGG [N3-M5], more than 20 µM; as for GGGGACGAAGGGGGCGCGGTGCCTCCTGG [N3-M7], 0.15 µM.
Same read-out and setting: as for GGGGCCAGTGGACGCGGGGAGCCTGCGGG [N3-M6], the figure is more than 10 µM; as for “TTTTCTTCTTCTTTT (double strand) [N3-1/N3C-1]”, more than 20 µM.
TTTTTTTTTTTTTTTTTTTT [T20] showed a Kd of more than 20 µM.
